Source: US20200010567A1 (NEURIMMUNE, published 2020)

Key:
[1] = target: T1, (GA)15: H-CHHHHHH(GA)15-OH; test: indirect ELISA, uncoupled peptide coated, antibody titrated [also D00013 FIG. 3D]
T1 construct: synthetic, not coupled to BSA; also called poly-GA DPR protein peptide
T1 peptide: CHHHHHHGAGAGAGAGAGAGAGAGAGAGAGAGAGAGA
Experimental: (§1) In brief, dipeptide repeat proteins were synthesized and purified by Schafer-N(Copenhagen, Denmark): (GA)₁₅: H-CHHHHHH(GA)₁₅-OH; (GP)₁₅: H-C(GP)₁₅-OH; (GR)₁₅: H-C(GR)₁₅-OH; (PA)₁₅: H-C(PA)₁₅-OH; (PR)₁₅: H—C(PR)₁₅-OH. DPR protein peptides were then conjugated via a bifunctional linker (SMCC) to bovine serum albumin (BSA). 96-well microplates (Corning Incorporated, Corning, USA) were coated with BSA-coupled or -uncoupled dipeptide repeat protein peptides at a concentration of either 5 μg/ml or 20 μg/ml in coating buffer (15 mM Na₂CO₃, 35 mM NaHCO₃, pH 9.42). Non-specific binding sites were blocked for 1 h at room temperature with PBS/0.1% Tween®-20 containing 2% BSA (Sigma-Aldrich, Buchs, Switzerland). Primary antibodies were diluted to the indicated concentrations and incubated 1 h at room temperature, followed by incubation with a donkey anti-human IgG Fcγ-specific antibody conjugated with HRP (Jackson ImmunoResearch Laboratories, Inc., West Grove, USA). Binding was determined by measurement of HRP activity in a standard colorimetric assay. EC₅₀ values were estimated by non-linear regression using GraphPad Prism software (San Diego, USA).

GP4: H-(GP)4HHHHHH-NH2 = target: T2, GP4: H-(GP)4HHHHHH-NH2; test: indirect ELISA, His-tagged peptide coated at 50 ug/ml, antibody titrated [also D00027 FIG. 7N]
T2 peptide: H-GPGPGPGPHHHHHH-NH2
Text: (§2) In brief, dipeptide repeat proteins were synthesized and purified by Schafer-N (Copenhagen, Denmark): GA₂₀: H-(GA)₂₀HHHHHH-NH₂; GA₁₀: H-(GA)₁₀HHHHHH-NH₂; GA₆: H-(GA)₆HHHHHH-NH₂; GA₅: H-(GA)₅HHHHHH-NH₂; GA₄: H-(GA)₄HHHHHH-NH₂; GA₃: H-(GA)₃HHHHHH-NH₂; GA₂: H-(GA)₂HHHHHH-NH₂; GP₂₀: H-(GP)₂₀HHHHHH-NH₂; GP₁₀: H-(GP)₁₀HHHHHH-NH₂; GP₆: H-(GP)₆HHHHHH-NH₂; GP₅: H-(GP)₅HHHHHH-NH₂; GP₄: H-(GP)₄HHHHHH-NH₂; GP₃: H-(GP)₃HHHHHH-NH₂; GP₂: H-(GP)₂HHHHHH-NH₂. GR₂₀: H-(GR)₂₀HHHHHH-NH₂; GR₁₀: H-(GR)₁₀HHHHHH-NH₂; GR₆: H-(GR)₆HHHHHH-NH₂; GR₅: H-(GR)₅HHHHHH-NH₂; GR₄: H-(GR)₄HHHHHH-NH₂; GR₃: H-(GR)₃HHHHHH-NH₂; GR₂: H-(GR)₂HHHHHH-NH₂; PA₂₀: H-(PA)₂₀HHHHHH-NH₂; PA₁₀: H-(PA)₁₀HHHHHH-NH₂; PA₆: H-(PA)₆HHHHHH-NH₂; PA₅: H-(PA)₅HHHHHH-NH₂; PA₄: H-(PA)₄HHHHHH-NH₂; PA₃: H-(PA)₃HHHHHH-NH₂; PA₂: H-(PA)₂HHHHHH-NH₂; PR₂₀: H-(PR)₂₀HHHHHH-NH₂; PR₁₀: H-(PR)₁₀HHHHHH-NH₂; PR₆: H-(PR)₆HHHHHH-NH₂; PR₅: H-(PR)₅HHHHHH-NH₂; PR₄: H-(PR)₄HHHHHH-NH₂; PR₃: H-(PR)₃HHHHHH-NH₂; PR₂: H-(PR)₂HHHHHH-NH₂. 96-well microplates (Corning Incorporated, Corning, USA) were coated with dipeptide repeat protein peptides at a concentration of 50 μg/ml in coating buffer (15 mM Na₂CO₃, 35 mM NaHCO₃, pH 9.42). Non-specific binding sites were blocked for 1 h at room temperature with PBS/0.1% Tween®-20 containing 2% BSA (Sigma-Aldrich, Buchs, Switzerland). Primary antibodies were diluted to the indicated concentrations and incubated 1 h at room temperature, followed by incubation with a donkey anti-human IgG Fcγ-specific antibody conjugated with HRP (Jackson ImmunoResearch Laboratories, Inc., West Grove, USA). Binding was determined by measurement of HRP activity in a standard colorimetric assay. EC₅₀ values were estimated by non-linear regression using GraphPad Prism software (San Diego, USA).

GP3: H-(GP)3HHHHHH-NH2 = target: T3, GP3: H-(GP)3HHHHHH-NH2; test: as above
T3 peptide: H-GPGPGPHHHHHH-NH2
Text: as §2

GP5: H-(GP)5HHHHHH-NH2 = target: T4, GP5: H-(GP)5HHHHHH-NH2; test: as above
T4 peptide: H-GPGPGPGPGPHHHHHH-NH2
Text: as §2

GP2: H-(GP)2HHHHHH-NH2 = target: T5, GP2: H-(GP)2HHHHHH-NH2; test: as above
T5 peptide: H-GPGPHHHHHH-NH2
Text: as §2

PA2: H-(PA)2HHHHHH-NH2 = target: T6, PA2: H-(PA)2HHHHHH-NH2; test: indirect ELISA, His-tagged peptide coated at 50 ug/ml, antibody titrated [also D00028 FIG. 7P]
T6 peptide: H-PAPAHHHHHH-NH2
Experimental: as §1, with “96-well” for “In brief, dipeptide repeat proteins were synthesized and purified by Schafer-N(Copenhagen, Denmark): (GA)₁₅: H-CHHHHHH(GA)₁₅-OH; (GP)₁₅: H-C(GP)₁₅-OH; (GR)₁₅: H-C(GR)₁₅-OH; (PA)₁₅: H-C(PA)₁₅-OH; (PR)₁₅: H—C(PR)₁₅-OH. DPR protein peptides were then conjugated via a bifunctional linker (SMCC) to bovine serum albumin (BSA). 96-well”, “with” for “with BSA-coupled or -uncoupled”, “50” for “either 5 μg/ml or 20”
(§3) High affinity binding was detected for poly-GA DPRs harboring 10 or 20 (GA)-repeats, reflected in an EC₅₀ in the subnanomolar or low nanomolar range (FIGS. 7A, 7C-7I).

PA3: H-(PA)3HHHHHH-NH2 = target: T7, PA3: H-(PA)3HHHHHH-NH2; test: as above
T7 peptide: H-PAPAPAHHHHHH-NH2
Experimental: as §1, with “96-well” for “In brief, dipeptide repeat proteins were synthesized and purified by Schafer-N(Copenhagen, Denmark): (GA)₁₅: H-CHHHHHH(GA)₁₅-OH; (GP)₁₅: H-C(GP)₁₅-OH; (GR)₁₅: H-C(GR)₁₅-OH; (PA)₁₅: H-C(PA)₁₅-OH; (PR)₁₅: H—C(PR)₁₅-OH. DPR protein peptides were then conjugated via a bifunctional linker (SMCC) to bovine serum albumin (BSA). 96-well”, “with” for “with BSA-coupled or -uncoupled”, “50” for “either 5 μg/ml or 20”
as §3

B1: NI-308.28G1 (antibody, V domains shown)
VH: QVQLQESGPRLVKPSETLSLTCTVAGGSVNSYYWTWIQQSPGKGLEWLGRIYIAGRTNYNPSLTSRIALSVDTSRNQLSLKLTSVTAADTAIYYCARWGAESGDYYYGVDVWGPGTLVTVSS
VL: EIVMTQSPLSLPVTPGEPASISCKSSEGLLHSNGYTYLDWYLQKPGQAPQLLIFLASNRAAGVPDRFSGSGSGTDFTLKISRVEAEDVGVYYCMQAIQSPWTFGPGTKVEIK
notes: Recombinant complete human IgG1, kappa
EC50 [1]: 2 nM

B2: NI-308.46E9 (antibody, V domains shown)
VH: QVQLQESGPGLVKPSETLSLTCTVSGASISGSTYYWGWIRQPPGKGLEYIGRIYYSGSTYYNPSLKSRATISVDTSKNQLSLTLSSVTAADTAVYYCVRPFYAGSGNSPFDYWGQGTLVTVSS
VL: CEIVLTQSPATVSVSPGERATLSCRASQSVSTNLAWYQQKPGQPPRLLIYGASTRATGIPARFSGSGSGAEFTLTISSLQSEDFVVYYCQQYNNWPPAFGGGTKVEIK
notes: as for B1
binding result (GP4: H-(GP)4HHHHHH-NH2): no binding (tested: about 4x10^5 pM (last point)) | binding result (GP3: H-(GP)3HHHHHH-NH2): no binding (tested: about 4x10^5 pM (last point)) | binding result (GP5: H-(GP)5HHHHHH-NH2): no binding (tested: about 4x10^5 pM (last point)) | binding result (GP2: H-(GP)2HHHHHH-NH2): no binding (tested: about 4x10^5 pM (last point))

B3: NI-308.4M1 (antibody, V domains shown)
VH: EVQLVETGGGVVQPGGSLRLSCEASGFTIGTYAMHWVRQFPGKGLDWVAVISFDGTTEYYTDAVKGRFTISRDNAKNTLYLQMNYLRGDDTAIYFCARDFTSSGETGSWTQVPDLWGQGTLVTVSS
VL: CEIVMTQSPATLSLSPGERATLSCRASQSVTKYLAWYQQKPGQAPRLLIYDVSYRAAGTPARFSGSGSGTDFTLTISSLEPEDFAVYYCHQRSSWPPVTFGGGTKVEIK
notes: as for B1
binding result (PA2: H-(PA)2HHHHHH-NH2): no binding (tested: about 4x10^5 pM (last point)) | binding result (PA3: H-(PA)3HHHHHH-NH2): no binding (tested: about 4x10^5 pM (last point))
